Here are results for 9 molecules from patent US20250361326A1 (Hoffmann-La Roche, published 2025).

Assay [1] deals with T1, VEGF (UniProt P15692-9 27-147).
T1 construct: also called VEGF121
T1 sequence (looked up): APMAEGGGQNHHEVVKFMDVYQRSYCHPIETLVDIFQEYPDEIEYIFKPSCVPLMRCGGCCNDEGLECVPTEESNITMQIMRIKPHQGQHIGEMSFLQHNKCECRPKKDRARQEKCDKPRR
Put plainly: bridging ELISA, VEGF coated, digoxygenin-Cy5 detection; binder has dig and PDGF arms, no VEGF arm. On the technique in general: ELISA stands for enzyme-linked immunosorbent assay.

The target of assay [2] is T1, VEGF. Put plainly: bridging ELISA of exchange reaction mix, 1.3 µM input; VEGF coated, biocytinamid-Cy5 detection; highest value = 100%; binder has neither arm.
Assay [3] has as its target T1, VEGF. Put plainly: bridging ELISA of exchange reaction mix, 1.3 µM input; VEGF coated, digoxygenin-Cy5 detection; highest value = 100%; binder has dig arm, no VEGF arm.
Assay [4] deals with T1, VEGF. Put plainly: bridging ELISA, VEGF coated, biocytinamid-Cy5 detection; binder has bio arm, no VEGF arm.
The target of assay [5] is T1, VEGF. Description: bridging ELISA of exchange reaction mix, 1.3 µM input; VEGF coated, digoxygenin-Cy5 detection; highest value = 100%; binder has neither arm.
The target of assay [6] is T1, VEGF. Description: bridging ELISA of exchange reaction mix, 1.3 µM input; VEGF coated, biocytinamid-Cy5 detection; highest value = 100%; binder has bio arm, no VEGF arm.
Assay [7] deals with T1, VEGF. Put plainly: bridging ELISA, VEGF coated, digoxygenin-Cy5 detection; binder has dig arm, no VEGF arm.
Assay [8] addresses T1, VEGF. Description: bridging ELISA, VEGF coated, biocytinamid-Cy5 or digoxygenin-Cy5 detection; binder has bio and dig arms, no VEGF arm.
Assay [9] concerns the target T1, VEGF. Description: bridging ELISA, VEGF coated, biocytinamid-Cy5 detection; binder has bio and PDGF arms, no VEGF arm.

B1: anti-dig/anti-PDGF bispecific antibody (exchange reaction: dig MHCFcRP-knob-E357K row x PDGF MHCFcRP-hole-K370E column) (bispecific antibody, human IgG1, not shown: small tags and cut ends)
heavy 1: QVQLVESGGGLVKPGGSLRLSCAASGFTFSDYAMSWIRQAPGKGLEWVSSINIGATYIYYADSVKGRFTISRDNAKNSLYLQMNSLRAEDTAVYYCARPGSPYEYDKAYYSMAYWGQGTTVTVSSASTKGPSVFPLAPSSKSTSGGTAALGCLVKDYFPEPVTVSWNSGALTSGVHTFPAVLQSSGLYSLSSVVTVPSSSLGTQTYICNVNHKPSNTKVDKKVEPKSC
light 1: not shown
heavy 2: EVQLVESGGGLVQPGGSLRLSCAASGFTFSSYWMSWVRQAPEKGLEWVSTISDGGGLTYYADSVKGRFTISRDNAKNSLYLQMNSLRAEDTAVYYCAESGGYTDWLFGYWGQGTLVTVSSASTKGPSVFPLAPSSKSTSGGTAALGCLVKDYFPEPVTVSWNSGALTSGVHTFPAVLQSSGLYSLSSVVTVPSSSLGTQTYICNVNHKPSNTKVDKKVEPKSC
light 2: not shown
notes: Product of the 2/3-IgG exchange reaction, tested as reaction mix; human IgG1 knob-into-hole format; also called dig/PDGF bsAb
As to B1, the binding result with VEGF [1] is on record as “no binding (tested: 1.3 µM input molecule concentration)”. Moreover, the relative signal intensity with VEGF [2] was 9.9%; with VEGF [3], 7%.

B2: anti-PDGF/anti-dig bispecific antibody (exchange reaction: PDGF MHCFcRP-knob-E357K row x dig MHCFcRP-hole-K370E column) (bispecific antibody, human IgG1, not shown: small tags and cut ends)
heavy 1: EVQLVESGGGLVQPGGSLRLSCAASGFTFSSYWMSWVRQAPEKGLEWVSTISDGGGLTYYADSVKGRFTISRDNAKNSLYLQMNSLRAEDTAVYYCAESGGYTDWLFGYWGQGTLVTVSSASTKGPSVFPLAPSSKSTSGGTAALGCLVKDYFPEPVTVSWNSGALTSGVHTFPAVLQSSGLYSLSSVVTVPSSSLGTQTYICNVNHKPSNTKVDKKVEPKSC
light 1: not shown
heavy 2: QVQLVESGGGLVKPGGSLRLSCAASGFTFSDYAMSWIRQAPGKGLEWVSSINIGATYIYYADSVKGRFTISRDNAKNSLYLQMNSLRAEDTAVYYCARPGSPYEYDKAYYSMAYWGQGTTVTVSSASTKGPSVFPLAPSSKSTSGGTAALGCLVKDYFPEPVTVSWNSGALTSGVHTFPAVLQSSGLYSLSSVVTVPSSSLGTQTYICNVNHKPSNTKVDKKVEPKSC
light 2: not shown
notes: Product of the 2/3-IgG exchange reaction, tested as reaction mix; human IgG1 knob-into-hole format; also called PDGF/dig bsAb
B2: in the assay with VEGF [1], the binding result is reported as “no binding (tested: 1.3 µM input molecule concentration)”. Besides, the figures for the relative signal intensity with VEGF [2] and with VEGF [3] were 9.2% and 5.9%, respectively.

B3: anti-bio/anti-fluos bispecific antibody (exchange reaction: bio MHCFcRP-knob-E357K row x fluos MHCFcRP-hole-K370E column) (bispecific antibody, human IgG1, kappa)
heavy 1: not shown
light 1: DIQMTQSPSSLSASVGDRVTITCRASGNIHNYLSWYQQKPGKVPKLLIYSAKTLADGVPSRFSGSGSGTDFTLTISSLQPEDVATYYCQHFWSSIYTFGQGTKLEIKRTVAAPSVFIFPPSDEQLKSGTASVVCLLNNFYPREAKVQWKVDNALQSGNSQESVTEQDSKDSTYSLSSTLTLSKADYEKHKVYACEVTHQGLSSPVTKSFNRGEC
heavy 2: not shown
light 2: DIVMTQTPLSLSVTPGQPASISCKSSQSLVHSNGNTYLRWYLQKPGQSPKVLIYKVSNRVSGVPDRFSGSGSGTDFTLKISRVEAEDVGVYYCSQSTHVPWTFGQGTKLEIKRTVAAPSVFIFPPSDEQLKSGTASVVCLLNNFYPREAKVQWKVDNALQSGNSQESVTEQDSKDSTYSLSSTLTLSKADYEKHKVYACEVTHQGLSSPVTKSFNRGEC
notes: Product of the 2/3-IgG exchange reaction, tested as reaction mix; human IgG1 knob-into-hole format; also called bio/fluos bsAb
Turning to B3, the binding result with VEGF [4] is “no binding (tested: 1.3 µM input molecule concentration)”. Also, the relative signal intensity in the assay with VEGF [5] was 7.2%; with VEGF [6], 9%.

B4: anti-fluos/anti-dig bispecific antibody (exchange reaction: fluos MHCFcRP-knob-E357K row x dig MHCFcRP-hole-K370E column) (bispecific antibody, human IgG1, not shown: small tags and cut ends)
heavy 1: not shown
light 1: DIVMTQTPLSLSVTPGQPASISCKSSQSLVHSNGNTYLRWYLQKPGQSPKVLIYKVSNRVSGVPDRFSGSGSGTDFTLKISRVEAEDVGVYYCSQSTHVPWTFGQGTKLEIKRTVAAPSVFIFPPSDEQLKSGTASVVCLLNNFYPREAKVQWKVDNALQSGNSQESVTEQDSKDSTYSLSSTLTLSKADYEKHKVYACEVTHQGLSSPVTKSFNRGEC
heavy 2: QVQLVESGGGLVKPGGSLRLSCAASGFTFSDYAMSWIRQAPGKGLEWVSSINIGATYIYYADSVKGRFTISRDNAKNSLYLQMNSLRAEDTAVYYCARPGSPYEYDKAYYSMAYWGQGTTVTVSSASTKGPSVFPLAPSSKSTSGGTAALGCLVKDYFPEPVTVSWNSGALTSGVHTFPAVLQSSGLYSLSSVVTVPSSSLGTQTYICNVNHKPSNTKVDKKVEPKSC
light 2: not shown
notes: Product of the 2/3-IgG exchange reaction, tested as reaction mix; human IgG1 knob-into-hole format; also called fluos/dig bsAb
With B4, the binding result with VEGF [7] is recorded as “no binding (tested: 1.3 µM input molecule concentration)”. Moreover, the relative signal intensity with VEGF [2] was determined as 9.4%; in the assay with VEGF [3], 6.3%.

B5: anti-dig/anti-bio bispecific antibody (exchange reaction: dig MHCFcRP-knob-E357K row x bio MHCFcRP-hole-K370E column) (bispecific antibody, human IgG1, not shown: small tags and cut ends)
heavy 1: QVQLVESGGGLVKPGGSLRLSCAASGFTFSDYAMSWIRQAPGKGLEWVSSINIGATYIYYADSVKGRFTISRDNAKNSLYLQMNSLRAEDTAVYYCARPGSPYEYDKAYYSMAYWGQGTTVTVSSASTKGPSVFPLAPSSKSTSGGTAALGCLVKDYFPEPVTVSWNSGALTSGVHTFPAVLQSSGLYSLSSVVTVPSSSLGTQTYICNVNHKPSNTKVDKKVEPKSC
light 1: not shown
heavy 2: not shown
light 2: DIQMTQSPSSLSASVGDRVTITCRASGNIHNYLSWYQQKPGKVPKLLIYSAKTLADGVPSRFSGSGSGTDFTLTISSLQPEDVATYYCQHFWSSIYTFGQGTKLEIKRTVAAPSVFIFPPSDEQLKSGTASVVCLLNNFYPREAKVQWKVDNALQSGNSQESVTEQDSKDSTYSLSSTLTLSKADYEKHKVYACEVTHQGLSSPVTKSFNRGEC
notes: Product of the 2/3-IgG exchange reaction, tested as reaction mix; human IgG1 knob-into-hole format; also called dig/bio bsAb
Take B5: the binding result with VEGF [8] was “no binding (tested: 1.3 µM input molecule concentration)”. The relative signal intensity amounted to 6.2% in the assay with VEGF [3] and 9% with VEGF [6].

B6: anti-bio/anti-PDGF bispecific antibody (exchange reaction: bio MHCFcRP-knob-E357K row x PDGF MHCFcRP-hole-K370E column) (bispecific antibody, human IgG1, not shown: small tags and cut ends)
heavy 1: not shown
light 1: DIQMTQSPSSLSASVGDRVTITCRASGNIHNYLSWYQQKPGKVPKLLIYSAKTLADGVPSRFSGSGSGTDFTLTISSLQPEDVATYYCQHFWSSIYTFGQGTKLEIKRTVAAPSVFIFPPSDEQLKSGTASVVCLLNNFYPREAKVQWKVDNALQSGNSQESVTEQDSKDSTYSLSSTLTLSKADYEKHKVYACEVTHQGLSSPVTKSFNRGEC
heavy 2: EVQLVESGGGLVQPGGSLRLSCAASGFTFSSYWMSWVRQAPEKGLEWVSTISDGGGLTYYADSVKGRFTISRDNAKNSLYLQMNSLRAEDTAVYYCAESGGYTDWLFGYWGQGTLVTVSSASTKGPSVFPLAPSSKSTSGGTAALGCLVKDYFPEPVTVSWNSGALTSGVHTFPAVLQSSGLYSLSSVVTVPSSSLGTQTYICNVNHKPSNTKVDKKVEPKSC
light 2: not shown
notes: Product of the 2/3-IgG exchange reaction, tested as reaction mix; human IgG1 knob-into-hole format; also called bio/PDGF bsAb
For the molecule B6, in the assay with VEGF [9], the binding result is on record as “no binding (tested: 1.3 µM input molecule concentration)”. Also, the relative signal intensity worked out at 6.1% with VEGF [5] and 10.1% in the assay with VEGF [6].

B7: anti-fluos/anti-bio bispecific antibody (exchange reaction: fluos MHCFcRP-knob-E357K row x bio MHCFcRP-hole-K370E column) (bispecific antibody, human IgG1, kappa)
heavy 1: not shown
light 1: DIVMTQTPLSLSVTPGQPASISCKSSQSLVHSNGNTYLRWYLQKPGQSPKVLIYKVSNRVSGVPDRFSGSGSGTDFTLKISRVEAEDVGVYYCSQSTHVPWTFGQGTKLEIKRTVAAPSVFIFPPSDEQLKSGTASVVCLLNNFYPREAKVQWKVDNALQSGNSQESVTEQDSKDSTYSLSSTLTLSKADYEKHKVYACEVTHQGLSSPVTKSFNRGEC
heavy 2: not shown
light 2: DIQMTQSPSSLSASVGDRVTITCRASGNIHNYLSWYQQKPGKVPKLLIYSAKTLADGVPSRFSGSGSGTDFTLTISSLQPEDVATYYCQHFWSSIYTFGQGTKLEIKRTVAAPSVFIFPPSDEQLKSGTASVVCLLNNFYPREAKVQWKVDNALQSGNSQESVTEQDSKDSTYSLSSTLTLSKADYEKHKVYACEVTHQGLSSPVTKSFNRGEC
notes: Product of the 2/3-IgG exchange reaction, tested as reaction mix; human IgG1 knob-into-hole format; also called fluos/bio bsAb
Turning to B7, the binding result with VEGF [4] is reported as “no binding (tested: 1.3 µM input molecule concentration)”. Moreover, the relative signal intensity with VEGF [5] worked out at 6.5%; with VEGF [6] it was 10.2%.

B8: anti-PDGF/anti-bio bispecific antibody (exchange reaction: PDGF MHCFcRP-knob-E357K row x bio MHCFcRP-hole-K370E column) (bispecific antibody, human IgG1, not shown: small tags and cut ends)
heavy 1: EVQLVESGGGLVQPGGSLRLSCAASGFTFSSYWMSWVRQAPEKGLEWVSTISDGGGLTYYADSVKGRFTISRDNAKNSLYLQMNSLRAEDTAVYYCAESGGYTDWLFGYWGQGTLVTVSSASTKGPSVFPLAPSSKSTSGGTAALGCLVKDYFPEPVTVSWNSGALTSGVHTFPAVLQSSGLYSLSSVVTVPSSSLGTQTYICNVNHKPSNTKVDKKVEPKSC
light 1: not shown
heavy 2: not shown
light 2: DIQMTQSPSSLSASVGDRVTITCRASGNIHNYLSWYQQKPGKVPKLLIYSAKTLADGVPSRFSGSGSGTDFTLTISSLQPEDVATYYCQHFWSSIYTFGQGTKLEIKRTVAAPSVFIFPPSDEQLKSGTASVVCLLNNFYPREAKVQWKVDNALQSGNSQESVTEQDSKDSTYSLSSTLTLSKADYEKHKVYACEVTHQGLSSPVTKSFNRGEC
notes: Product of the 2/3-IgG exchange reaction, tested as reaction mix; human IgG1 knob-into-hole format; also called PDGF/bio bsAb
B8: the binding result with VEGF [9] was “no binding (tested: 1.3 µM input molecule concentration)”. Moreover, the relative signal intensity with VEGF [5] is 6%; with VEGF [6], 10.5%.

B9: anti-bio/anti-dig bispecific antibody (exchange reaction: bio MHCFcRP-knob-E357K row x dig MHCFcRP-hole-K370E column) (bispecific antibody, human IgG1, not shown: small tags and cut ends)
heavy 1: not shown
light 1: DIQMTQSPSSLSASVGDRVTITCRASGNIHNYLSWYQQKPGKVPKLLIYSAKTLADGVPSRFSGSGSGTDFTLTISSLQPEDVATYYCQHFWSSIYTFGQGTKLEIKRTVAAPSVFIFPPSDEQLKSGTASVVCLLNNFYPREAKVQWKVDNALQSGNSQESVTEQDSKDSTYSLSSTLTLSKADYEKHKVYACEVTHQGLSSPVTKSFNRGEC
heavy 2: QVQLVESGGGLVKPGGSLRLSCAASGFTFSDYAMSWIRQAPGKGLEWVSSINIGATYIYYADSVKGRFTISRDNAKNSLYLQMNSLRAEDTAVYYCARPGSPYEYDKAYYSMAYWGQGTTVTVSSASTKGPSVFPLAPSSKSTSGGTAALGCLVKDYFPEPVTVSWNSGALTSGVHTFPAVLQSSGLYSLSSVVTVPSSSLGTQTYICNVNHKPSNTKVDKKVEPKSC
light 2: not shown
notes: Product of the 2/3-IgG exchange reaction, tested as reaction mix; human IgG1 knob-into-hole format; also called bio/dig bsAb
Take B9: the binding result with VEGF [8] is on record as “no binding (tested: 1.3 µM input molecule concentration)”. Also, the relative signal intensity stood at 6.2% with VEGF [3] and 9.3% in the assay with VEGF [6].
